This note sets out measurements from US20020004485A1 (University of California, published 2002).

Assay [1] deals with atypical MC receptor of Cos-7 cells. Kind of assay: cell-based or functional assay.
In assay [2] the target is MC receptor endogenous to Xenopus laevis melanophores (Xenopus laevis). Put plainly: cell-based or functional assay.

B1: α-melanocyte stimulating hormone (ligand, UniProt P01189 138-150, looked up)
peptide: SYSMEHFRWGKPV
For B1, in assay [1], the “EC50 of α-MSH for cAMP production in Cos-7 cells” value was around 80 nM. Besides, the “EC50 of α-MSH alone in frog melanophores” value in assay [2] came to 0.03 nM.
